Data set [1] deals with ESX-3 core complex protomer EccB3:EccC3:EccD3:EccE3, from pMyNT:ESX-3 (whole gene cluster) (Mycobacterium smegmatis) (UniProt A0QQ39). The experiment in a line: SEC. (Size exclusion chromatography separates by hydrodynamic size, large species first.)
Data set [2] concerns the target ESX-3 core complex protomer EccB3:EccC3:EccD3:EccE3 (1:1:2:1), from pMyNT:Mini (Mycobacterium smegmatis) (UniProt A0QQ39). The experiment in a line: cryo-EM structure.
Data set [3] concerns the target EccB3:EccC3:EccD3 subcomplex (Mycobacterium smegmatis) (UniProt A0QQ39). The experiment in a line: SEC.
In data set [4] the target is T1, EccC3 with C-terminal His-tag (Mycobacterium smegmatis, UniProt A0QQ40 1-1325).
T1 sequence: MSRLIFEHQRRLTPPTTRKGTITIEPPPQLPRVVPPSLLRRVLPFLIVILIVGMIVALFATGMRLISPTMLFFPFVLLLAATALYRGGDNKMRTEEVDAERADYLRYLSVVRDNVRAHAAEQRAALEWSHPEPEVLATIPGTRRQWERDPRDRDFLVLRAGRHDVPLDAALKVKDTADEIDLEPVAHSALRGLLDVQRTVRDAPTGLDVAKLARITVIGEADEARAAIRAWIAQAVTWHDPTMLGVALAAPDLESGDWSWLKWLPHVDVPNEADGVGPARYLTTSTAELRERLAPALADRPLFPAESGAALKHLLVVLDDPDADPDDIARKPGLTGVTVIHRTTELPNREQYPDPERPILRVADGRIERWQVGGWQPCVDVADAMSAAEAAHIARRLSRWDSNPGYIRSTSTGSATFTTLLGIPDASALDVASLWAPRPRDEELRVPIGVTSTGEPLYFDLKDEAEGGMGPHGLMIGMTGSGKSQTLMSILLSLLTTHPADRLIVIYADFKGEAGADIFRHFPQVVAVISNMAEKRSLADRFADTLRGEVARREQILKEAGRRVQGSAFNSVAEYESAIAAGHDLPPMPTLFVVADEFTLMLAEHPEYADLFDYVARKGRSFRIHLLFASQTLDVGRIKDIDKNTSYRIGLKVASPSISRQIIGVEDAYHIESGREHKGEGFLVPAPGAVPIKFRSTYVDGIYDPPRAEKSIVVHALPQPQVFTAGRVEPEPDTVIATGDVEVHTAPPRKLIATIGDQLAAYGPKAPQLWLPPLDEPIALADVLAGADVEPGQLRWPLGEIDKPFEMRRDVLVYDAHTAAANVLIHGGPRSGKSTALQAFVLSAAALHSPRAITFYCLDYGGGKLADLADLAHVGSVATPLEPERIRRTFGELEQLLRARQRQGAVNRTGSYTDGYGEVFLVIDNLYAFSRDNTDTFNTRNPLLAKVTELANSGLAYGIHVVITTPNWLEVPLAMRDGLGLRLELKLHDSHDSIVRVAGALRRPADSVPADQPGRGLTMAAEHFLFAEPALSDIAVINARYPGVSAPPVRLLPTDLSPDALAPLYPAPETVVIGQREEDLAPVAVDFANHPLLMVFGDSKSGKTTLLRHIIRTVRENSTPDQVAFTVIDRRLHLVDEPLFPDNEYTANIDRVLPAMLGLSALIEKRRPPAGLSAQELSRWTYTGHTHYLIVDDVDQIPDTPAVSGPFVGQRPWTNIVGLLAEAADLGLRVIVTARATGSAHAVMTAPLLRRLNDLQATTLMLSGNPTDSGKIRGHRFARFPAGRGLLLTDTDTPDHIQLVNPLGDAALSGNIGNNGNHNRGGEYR
The experiment in a line: densitometry of SDS-PAGE bands.

The data set “cryo-EM structure” deals with the molecule itself. The experiment in a line: cryo-EM structure.
The data set “SEC-MALS” deals with the molecule itself. The experiment in a line: SEC-MALS.

As usually defined, the stoichiometry N is a count of units in the complex or per binding partner. In data set [1], “ESX-3 core complex protomer EccB3:EccC3:EccD3:EccE3, from pMyNT:ESX-3 (whole gene cluster) (from UniProt A0QQ39;A0QQ40;A0QQ46;A0QQ48)” returned a stoichiometry N of 2. In data set [2], “ESX-3 core complex protomer EccB3:EccC3:EccD3:EccE3 (1:1:2:1), from pMyNT:Mini (from UniProt A0QQ39;A0QQ40;A0QQ46;A0QQ48)” showed a stoichiometry N of 2. In the case of “EccB3:EccC3:EccD3 subcomplex (from UniProt A0QQ39;A0QQ40;A0QQ46)”, the stoichiometry N in data set [3] is 2.

B1: EccB3 (natural protein)
chain: MTGPVNPDDRRSFSSRTPVNENPDGVQYRRGFVTRHQVSGWRFVMRRIASGVALHDTRMLVDPLRTQSRAVLTGALILVTGLVGCFIFSLFRPGGVPGNNAILADRSTSALYVRVGEQLHPVLNLTSARLISGSPDNPTMVKTSEIDKFPRGNLLGIPGAPERMVQNAATDAEWTVCDAVGGANPGVTVIAGPLGADGERAAPLPPDHAVLVHSDAEPNPGDWLLWDGKRSPIDLADRAVTDALGLGGQALAPRPIAAGLFNAVPAAPALTAPVIPDAGAAPQFELSLPVPVGAVVVAYDADNTARYYAVLSDGLQPISPVLAAILRNTDSHGFAQPPRLGPDEVARTPMSRGLDTSAYPDNPVTLVEASAHPVTCAHWTKPSDAAESSLSVLSGAVLPLAEGLHTVDLVGAGAGGAANRVALTPGTGYFVQTVGAEPGSPTAGSMFWVSDTGVRYGIDTAEDDKVVAALGLSTSPLPVPWSVLSQFAAGPALSRGDALVAHDAVSTNPNSARMEASR
On to B1, for which the “stoichiometry N” value in data set [4] was 1; in the data set “cryo-EM structure” it was 2.

B2: EccD3 with N-terminal Strep-tag II (natural protein)
chain: MSENTVMPIVRVAVLAAGDDGGRLTEMALPSELPLREILPAVQRIVQPARENDGAADPAAAPNPVRLSLAPIGGAPFSLDATLDTVGVVDGDLLALQAVPSGPPAPRIVEDIADAAVIFSEARRRQWGPTHIARGAALALIGLILVGTGLSVAHRVITGDLLGQFIVSGIALATVIAALAVRNRSAVLATSLAVTALVPVAAAFALGVPGDFGAPNVLLAAAGVAAWSLISMAGSPDDRGIAVFTATAVTGVGVLLVAGAASLWVISSDVIGCALVLLGLIVTVQAAQLSAMWARFPLPVIPAPGDPTPAARPLSVLADLPRRVRVSQAHQTGVIAAGVLLGVAGSVALVSSANASPWAWYIVVAAAAGAALRARVWDSAACKAWLLGHSYLLAVALLVAFVIGDRYQAALWALAALAVLVLVWIVAALNPKIASPDTYSLPMRRMVGFLATGLDASLIPVMALLVGLFSLVLDR
For B2, the “stoichiometry N” value (in data set [4]; in “SEC-MALS”) was 2 each time.

B3: EccD3 (untagged, from the ESX-3 gene cluster plasmid pMyNT:ESX-3) (natural protein)
chain: B2 chain
B3: the “stoichiometry N” value in data set [4] came out at 2.

B4: EccE3 (natural protein)
chain: MTARIALASLFVVAAVLAQPWQTTTQRWVLGVSIAAVIVLLAWWKGMFLTTRIGRALAMVRRNRAEDTVETDAHRATVVLRVDPAAPAQLPVVVGYLDRYGITCDKVRITHRDAGGTRRSWISLTVDAVDNLAALQARSARIPLQDTTEVVGRRLADHLREQGWTVTVVEGVDTPLPVSGKETWRGVADDAGVVAAYRVKVDDRLDEVLAEIGHLPAEETWTALEFTGSPAEPLLTVCAAVRTSDRPAAKAPLAGLTPARGRHRPALAALNPLSTERLDGTAVPLPAVVRTSVKGSVEHEAAQEAGHPA
Take B4: the “stoichiometry N” value in data set [4] was 1.

The record behind these values is PMC6914368 (Nature, 2019).
